# In patent US11306156:
# Key:
# [1] = molecular target: tissue factor (TF) antigen (UniProt P13726); experiment: SPR (ProteOn XPR36), His-tagged Fab captured on anti-penta His, TF as analyte; against wild-type D3H44 Fab
# [2] = molecular target: tissue factor (TF) antigen (UniProt P13726); experiment: SPR (ProteOn XPR36), His-tagged Fab captured on anti-penta His, TF as analyte, 1:1 fit
# [3] = molecular target: tissue factor (TF) antigen (UniProt P13726); experiment: SPR (ProteOn XPR36): Fab captured via His tag on anti-penta-His, TF as analyte, 1:1 fit; estimated value, taken from the same Fab with another L chain tag
# [4] = molecular target: tissue factor (TF) antigen (UniProt P13726); experiment: SPR (ProteOn XPR36): Fab captured via His tag on anti-penta-His, TF as analyte, 1:1 fit
# [5] = molecular target: tissue factor (TF) antigen (UniProt P13726); experiment: SPR; log ratio against wild-type D3H44 Fab; estimated value
# [6] = molecular target: tissue factor (TF) antigen (UniProt P13726); experiment: SPR; log ratio against wild-type D3H44 Fab
# [7] = molecular target: tissue factor (TF) antigen (UniProt P13726); experiment: SPR (ProteOn XPR36), Fab captured by His tag on anti-penta-His surface, TF injected as analyte; against wild-type D3H44 Fab
# [8] = molecular target: tissue factor (TF) antigen (UniProt P13726); experiment: SPR (ProteOn XPR36), Fab captured by His tag on anti-penta-His surface, TF injected as analyte, 1:1 fit
# [9] = molecular target: tissue factor (TF) antigen (UniProt P13726); experiment: SPR, Fab captured on anti-penta-His, TF as analyte, 1:1 fit
# [10] = molecular target: tissue factor (TF) antigen (UniProt P13726); experiment: vs wild-type D3H44 Fab (KD 0.157 nM); SPR, Fab captured on anti-penta-His, TF as analyte
# Sequence of tissue factor (TF) antigen (P13726 33-251 limits assumed): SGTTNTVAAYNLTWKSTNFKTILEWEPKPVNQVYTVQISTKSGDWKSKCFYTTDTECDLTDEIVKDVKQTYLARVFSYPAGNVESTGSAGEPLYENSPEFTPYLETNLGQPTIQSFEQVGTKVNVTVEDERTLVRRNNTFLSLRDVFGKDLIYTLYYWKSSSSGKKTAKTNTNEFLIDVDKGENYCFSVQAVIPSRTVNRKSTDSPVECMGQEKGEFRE
Kd [3],Change in KD with respect to wild type (-(log(KD design) - log(KD wt))) [5],"change in median KD compared to wild type, -(log(KD design)-log(KD wt)) [7]",Kd [8],Substance,other results
,,,,"D3H44 Fab heterodimer, H1 L124R_S186R / L1 Q124E_V133G_S176D_T178D_T180E (H1L1 Fab of LCCA Set # 9513)",Change in median values of KD of h1|1 Fab heterodimer compared to wild type (-(log(KD design)-log(KD wt))) [1]: -0.21; Kd [2]: 0.26 nM
,,,,"D3H44 Fab heterodimer, H1 L143K_D146G / L1 Q124E_V133D (H1L1 Fab of LCCA Set # 9734)",Change in median values of KD of h1|1 Fab heterodimer compared to wild type (-(log(KD design)-log(KD wt))) [1]: -0.22; Kd [2]: 0.26 nM
0.28 nM,-0.25,,,"D3H44 Fab heterodimer, H L143D_K145T_Q179E / L T178R (H1L1 of LCCA sets 9579 and 9575)",Kd [4]: 0.28 nM; Change in KD with respect to wild type (-(log(KD design) - log(KD wt))) [6]: -0.25
0.06 nM,0.39,,,"D3H44 Fab heterodimer, H L143E_K145T_Q179D / L Q124R_Q160K_T178R (H1L1 of LCCA set 9623)",
0.14 nM,0.04,,,"D3H44 Fab heterodimer, H L143E_K145T_Q179D / L Q124R_T178R (H1L1 of LCCA sets 9635 and 9632)",Kd [4]: 0.14 nM; Change in KD with respect to wild type (-(log(KD design) - log(KD wt))) [6]: 0.04
0.11 nM,0.17,,,"D3H44 Fab heterodimer, H L143E_K145T_Q179D / L T178R (H1L1 of LCCA set 9641)",
0.14 nM,0.05,,,"D3H44 Fab heterodimer, H L143E_K145T_Q179E / L Q124K_T178R (H1L1 of LCCA sets 9645 and 9648)",Kd [4]: 0.14 nM; Change in KD with respect to wild type (-(log(KD design) - log(KD wt))) [6]: 0.05
0.19 nM,-0.08,,,"D3H44 Fab heterodimer, H L143E_K145T_Q179E / L Q124R_T178K (H1L1 of LCCA set 9657)",
0.27 nM,-0.23,,,"D3H44 Fab heterodimer, H L143E_K145T_Q179E / L Q124R_T178R (H1L1 of LCCA sets 9679 and 9663)",Kd [4]: 0.27 nM; Change in KD with respect to wild type (-(log(KD design) - log(KD wt))) [6]: -0.23
0.3 nM,-0.28,,,"D3H44 Fab heterodimer, H L143E_K145T_Q179E / L T178R (H1L1 of LCCA sets 9683 and 9684)",Kd [4]: 0.3 nM; Change in KD with respect to wild type (-(log(KD design) - log(KD wt))) [6]: -0.28
,,0.02 log,0.15 nM,"D3H44 H1L1 Fab heterodimer of LCCA Set # 9103 (H1 L124A_S186K, L1 Q124E_V133W_T180E)",
,,-0.02 log,0.16 nM,"D3H44 H1L1 Fab heterodimer of LCCA Set # 9116 (H1 L124E_A139W, L1 F116A_V133G_L135V_S176R)",
,,0.1 log,0.13 nM,"D3H44 H1L1 Fab heterodimer of LCCA Set # 9122 (H1 L124E_H172T, L1 V133G_S174R_S176R)",
,,-0.25 log,0.28 nM,"D3H44 H1L1 Fab heterodimer of LCCA Set # 9575 (H1 L143D_K145T_Q179E, L1 T178R)",
,,-0.18 log,0.24 nM,"D3H44 H1L1 Fab heterodimer of LCCA Sets # 6054, 9338 and 9339 (H1 L124R, L1 V133G_S176D_T178D)",
,,-0.02 log,0.16 nM,"D3H44 H1L1 Fab heterodimer of LCCA Sets # 9092, 9091 and 9090 (H1 L124A_L143F_Q179K, L1 Q124E_V133W_S176T_T178E_T180E)",
,,-0.17 log,0.23 nM,"D3H44 H1L1 Fab heterodimer of LCCA Sets # 9486, 9487, 9488 and 9489 (H1 L124R_S186K, L1 V133G_S176D_T178E_T180E)",
,,-0.25 log,0.28 nM,"D3H44 H1L1 Fab heterodimer of LCCA Sets # 9743 and 9744 (H1 L143R, L1 Q124E_V133E_S176L)",
,,,,"H1L1 Fab heterodimer of LCCA sets 9869, 9871, 9874, 9876 and 9879 (D3H44 Fab, H1 S186R, L1 Q124E_Q160E_T180E)","Kd [9]: 0.05 nM; change in median KD compared to wild type, -(log(KD design)-log(KD wt)) [10]: 0.51"
